The source of these data is publication doi:10.1101/2023.06.06.543969.

Experiment in all cases: BLI
Assay [1] concerns the target biotinylated SARS-CoV-2 fusion peptide.
Another assay deals with SARS-CoV-2 spike.
The target of assay [2] is HC84.26.5D Fab VH G50R (human).
Assay [3] concerns the target HCV E2 envelope glycoprotein.
Assay [4] has as its target His-tagged HIV Env MPER peptide.

Some results are limits rather than exact numbers.

On to COV44–62 Fab (WT) VH:R50W, for which the ratio to parent in assay [1] is more than 100. For the substance COVOX-316 VH:W50R, in the assay with SARS-CoV-2 spike, the ratio to parent is more than 100. Consider “HCV (isolate H77) E2 domain (domain or fragment)”, for which, in assay [2], the fold change in KD against the wild type was determined as 6 fold. As to HC33.8 VH:S52Y, the ratio to parent in assay [3] was more than 100.

In the case of 4E10 Fab (WT) VH:G50R, the ratio to parent in assay [4] was more than 100. On to HCV1 VH:W52S, for which the ratio to parent in assay [3] is more than 100. Regarding P008_60 VH:S52R, in the assay with SARS-CoV-2 spike, the ratio to parent is more than 100.
